Results published in the Human Domainome abundance scans (Beltran et al. 2025).
± gives the uncertainty stated by the source.

B1: Storkhead-box protein 2, residues 64 to 141; numbered along this chain, Q9P2F5 (parent)
chain: SPISQSQFIPLGEILCLAISAMNSARKPVTQEALMEHLTTCFPGVPTPSQEILRHTLNTLVRERKIYPTPDGYFIVTP

Variants of: B1
Assay: abundance fitness (aPCA) (normalised: wild type 0, dead -1); higher = more abundant; growth selection in yeast, the domain comes from the species named
Conditions: Homo sapiens

Variant | abundance fitness
SPISQSQFIPLGEILCLAISAMNSARKPVTQEALMEHLTTCFPGVPTPSQEILRHTHNTLVRERKIYPTPDGYFIVTP [L57H] | -1.1 ± 0.21
SPISQSQFIPLGEILCLAISAMNSARKPVTQEALMEHLTTCFPGVPTPSQEILRHTQNTLVRERKIYPTPDGYFIVTP [L57Q] | -0.924 ± 0.26
SPISQSQFIPLGEILCLAISAMNSARKPVTQEALMEHLTTCFPGVPTPSQEILRHTINTLVRERKIYPTPDGYFIVTP [L57I] | -0.04 ± 0.11
SPISQSQFIPLGEILCLAISAMNSARKPVTQEALMEHLTTCFPGVPTPSQEILRHTANTLVRERKIYPTPDGYFIVTP [L57A] | -0.576 ± 0.058
SPISQSQFIPLGEILCLAISAMNSARKPVTQEALMEHLTTCFPGVPTPSQEILRHTENTLVRERKIYPTPDGYFIVTP [L57E] | -0.784 ± 0.26
SPISQSQFIPLGEILCLAISAMNSARKPVTQEALMEHLTTCFPGVPTPSQEILRHTDNTLVRERKIYPTPDGYFIVTP [L57D] | -0.793 ± 0.24
SPISQSQFIPLGEILCLAISAMNSARKPVTQEALMEHLTTCFPGVPTPSQEILRHTFNTLVRERKIYPTPDGYFIVTP [L57F] | -0.306 ± 0.18
SPISQSQFIPLGEILCLAISAMNSARKPVTQEALMEHLTTCFPGVPTPSQEILRHTMNTLVRERKIYPTPDGYFIVTP [L57M] | -0.066 ± 0.069
SPISQSQFIPLGEILCLAISAMNSARKPVTQEALMEHLTTCFPGVPTPSQEILRHTSNTLVRERKIYPTPDGYFIVTP [L57S] | -0.799 ± 0.068
SPISQSQFIPLGEILCLAISAMNSARKPVTQEALMEHLTTCFPGVPTPSQEILRHTCNTLVRERKIYPTPDGYFIVTP [L57C] | -0.202 ± 0.083
SPISQSQFIPLGEILCLAISAMNSARKPVTQEALMEHLTTCFPGVPTPSQEILRHTWNTLVRERKIYPTPDGYFIVTP [L57W] | -0.269 ± 0.076
SPISQSQFIPLGEILCLAISAMNSARKPVTQEALMEHLTTCFPGVPTPSQEILRHTGNTLVRERKIYPTPDGYFIVTP [L57G] | -1.01 ± 0.082
SPISQSQFIPLGEILCLAISAMNSARKPVTQEALMEHLTTCFPGVPTPSQEILRHTTNTLVRERKIYPTPDGYFIVTP [L57T] | -0.193 ± 0.058
SPISQSQFIPLGEILCLAISAMNSARKPVTQEALMEHLTTCFPGVPTPSQEILRHTPNTLVRERKIYPTPDGYFIVTP [L57P] | -1.22 ± 0.14
SPISQSQFIPLGEILCLAISAMNSARKPVTQEALMEHLTTCFPGVPTPSQEILRHLLNTLVRERKIYPTPDGYFIVTP [T56L] | 0.054 ± 0.043
SPISQSQFIPLGEILCLAISAMNSARKPVTQEALMEHLTTCFPGVPTPSQEILRHPLNTLVRERKIYPTPDGYFIVTP [T56P] | -1.03 ± 0.12
SPISQSQFIPLGEILCLAISAMNSARKPVTQEALMEHLTTCFPGVPTPSQEILRHCLNTLVRERKIYPTPDGYFIVTP [T56C] | -0.056 ± 0.074
SPISQSQFIPLGEILCLAISAMNSARKPVTQEALMEHLTTCFPGVPTPSQEILRHDLNTLVRERKIYPTPDGYFIVTP [T56D] | -0.069 ± 0.1

Variant | abundance fitness
SPISQSQFIPLGEILCLAISAMNSARKPVTQEALMEHLTTCFPGVPTPSQEILRHKLNTLVRERKIYPTPDGYFIVTP [T56K] | -0.052 ± 0.1
SPISQSQFIPLGEILCLAISAMNSARKPVTQEALMEHLTTCFPGVPTPSQEILRHWLNTLVRERKIYPTPDGYFIVTP [T56W] | -0.022 ± 0.058
SPISQSQFIPLGEILCLAISAMNSARKPVTQEALMEHLTTCFPGVPTPSQEILRHELNTLVRERKIYPTPDGYFIVTP [T56E] | -0.087 ± 0.087
SPISQSQFIPLGEILCLAISAMNSARKPVTQEALMEHLTTCFPGVPTPSQEILRHQLNTLVRERKIYPTPDGYFIVTP [T56Q] | -0.045 ± 0.066
SPISQSQFIPLGEILCLAISAMNSARKPVTQEALMEHLTTCFPGVPTPSQEILRHALNTLVRERKIYPTPDGYFIVTP [T56A] | -0.046 ± 0.05
SPISQSQFIPLGEILCLAISAMNSARKPVTQEALMEHLTTCFPGVPTPSQEILRHSLNTLVRERKIYPTPDGYFIVTP [T56S] | -0.005 ± 0.045
SPISQSQFIPLGEILCLAISAMNSARKPVTQEALMEHLTTCFPGVPTPSQEILRHGLNTLVRERKIYPTPDGYFIVTP [T56G] | -0.051 ± 0.043
SPISQSQFIPLGEILCLAISAMNSARKPVTQEALMEHLTTCFPGVPTPSQEILRHFLNTLVRERKIYPTPDGYFIVTP [T56F] | -0.036 ± 0.034
SPISQSQFIPLGEILCLAISAMNSARKPVTQEALMEHLTTCFPGVPTPSQEILRHYLNTLVRERKIYPTPDGYFIVTP [T56Y] | -0.26 ± 0.23
SPISQSQFIPLGEILCLAISAMNSARKPVTQEALMEHLTTCFPGVPTPSQEILRHVLNTLVRERKIYPTPDGYFIVTP [T56V] | -0.042 ± 0.044
SPISQSQFIPLGEILCLAISAMNSARKPVTQEALMEHLTTCFPGVPTPSQEILRHMLNTLVRERKIYPTPDGYFIVTP [T56M] | 0.058 ± 0.085
SPISQSQFIPLGEILCLAISAMNSARKPVTQEALMEHLTTCFPGVPTPSQEILPHTLNTLVRERKIYPTPDGYFIVTP [R54P] | -0.401 ± 0.11
SPISQSQFIPLGEILCLAISAMNSARKPVTQEALMEHLTTCFPGVPTPSQEILSHTLNTLVRERKIYPTPDGYFIVTP [R54S] | 0.015 ± 0.06
SPISQSQFIPLGEILCLAISAMNSARKPVTQEALMEHLTTCFPGVPTPSQEILVHTLNTLVRERKIYPTPDGYFIVTP [R54V] | -0.012 ± 0.1
SPISQSQFIPLGEILCLAISAMNSARKPVTQEALMEHLTTCFPGVPTPSQEILQHTLNTLVRERKIYPTPDGYFIVTP [R54Q] | 0.066 ± 0.082
SPISQSQFIPLGEILCLAISAMNSARKPVTQEALMEHLTTCFPGVPTPSQEILWHTLNTLVRERKIYPTPDGYFIVTP [R54W] | -0.285 ± 0.091
SPISQSQFIPLGEILCLAISAMNSARKPVTQEALMEHLTTCFPGVPTPSQEILYHTLNTLVRERKIYPTPDGYFIVTP [R54Y] | -0.117 ± 0.33
